Data published in patent publication US20110059888A1.
[ ]: non-standard residue; d: D form. Phe(3-Me) = Cc1cccc(C[C@H](N)C(=O)O)c1; Phe(4-Me) = Cc1ccc(C[C@H](N)C(=O)O)cc1; Phe(2-Me) = Cc1ccccc1C[C@H](N)C(=O)O; Arg(Me) = CNC(=N)NCCC[C@H](N)C(=O)O; Dap(CONH2) = NC(=O)NC[C@H](N)C(=O)O; Ala(cPr) = N[C@@H](CC1CC1)C(=O)O; Hyp = O=C(O)[C@@H]1C[C@@H](O)CN1; αMeF = C[C@](N)(Cc1ccccc1)C(=O)O; Cha = N[C@@H](CC1CCCCC1)C(=O)O

B1: des(1)-Ac-[D-Tyr2,Glu3,Thr5,Arg(Me)9,Trp10]MS10 (peptide)
peptide: Ac-[dY]ENTFGL[Arg(Me)]W-NH2
SMILES: CNC(=N)NCCC[C@H](NC(=O)[C@H](CC(C)C)NC(=O)CNC(=O)[C@H](Cc1ccccc1)NC(=O)[C@@H](NC(=O)[C@H](CC(N)=O)NC(=O)[C@H](CCC(=O)O)NC(=O)[C@@H](Cc1ccc(O)cc1)NC(C)=O)[C@@H](C)O)C(=O)N[C@@H](Cc1c[nH]c2ccccc12)C(N)=O
B2: des(1)-Ac-[D-Tyr2,Glu3,Thr5,Cha6,Arg(Me)9,Trp10]MS10 (peptide)
peptide: Ac-[dY]ENT[Cha]GL[Arg(Me)]W-NH2
SMILES: CNC(=N)NCCC[C@H](NC(=O)[C@H](CC(C)C)NC(=O)CNC(=O)[C@H](CC1CCCCC1)NC(=O)[C@@H](NC(=O)[C@H](CC(N)=O)NC(=O)[C@H](CCC(=O)O)NC(=O)[C@@H](Cc1ccc(O)cc1)NC(C)=O)[C@@H](C)O)C(=O)N[C@@H](Cc1c[nH]c2ccccc12)C(N)=O
B3: des(1)-Ac-[D-Tyr2,Glu3,Thr5,Cha6,Ala(cPr)8,Arg(Me)9,Trp10]MS10 (peptide)
peptide: Ac-[dY]ENT[Cha]G[Ala(cPr)][Arg(Me)]W-NH2
SMILES: CNC(=N)NCCC[C@H](NC(=O)[C@H](CC1CC1)NC(=O)CNC(=O)[C@H](CC1CCCCC1)NC(=O)[C@@H](NC(=O)[C@H](CC(N)=O)NC(=O)[C@H](CCC(=O)O)NC(=O)[C@@H](Cc1ccc(O)cc1)NC(C)=O)[C@@H](C)O)C(=O)N[C@@H](Cc1c[nH]c2ccccc12)C(N)=O
B4: des(1)-Ac-[D-Tyr2,Hyp3,Thr5,Ser7,Arg(Me)9,Trp10]MS10 (peptide)
peptide: Ac-[dY][Hyp]NTFSL[Arg(Me)]W-NH2
SMILES: CNC(=N)NCCC[C@H](NC(=O)[C@H](CC(C)C)NC(=O)[C@H](CO)NC(=O)[C@H](Cc1ccccc1)NC(=O)[C@@H](NC(=O)[C@H](CC(N)=O)NC(=O)[C@@H]1C[C@@H](O)CN1C(=O)[C@@H](Cc1ccc(O)cc1)NC(C)=O)[C@@H](C)O)C(=O)N[C@@H](Cc1c[nH]c2ccccc12)C(N)=O
B5: des(1)-Ac-[D-Tyr2,Hyp3,Thr5,αMePhe6,Arg(Me)9,Trp10]MS10 (peptide)
peptide: Ac-[dY][Hyp]NT[αMeF]GL[Arg(Me)]W-NH2
SMILES: CNC(=N)NCCC[C@H](NC(=O)[C@H](CC(C)C)NC(=O)CNC(=O)[C@](C)(Cc1ccccc1)NC(=O)[C@@H](NC(=O)[C@H](CC(N)=O)NC(=O)[C@@H]1C[C@@H](O)CN1C(=O)[C@@H](Cc1ccc(O)cc1)NC(C)=O)[C@@H](C)O)C(=O)N[C@@H](Cc1c[nH]c2ccccc12)C(N)=O
B6: des(1)-Ac-[D-Tyr2,Hyp3,Alb4,Thr5,Arg(Me)9,Trp10]MS10 (peptide)
peptide: Ac-[dY][Hyp][Dap(CONH2)]TFGL[Arg(Me)]W-NH2
SMILES: CNC(=N)NCCC[C@H](NC(=O)[C@H](CC(C)C)NC(=O)CNC(=O)[C@H](Cc1ccccc1)NC(=O)[C@@H](NC(=O)[C@H](CNC(N)=O)NC(=O)[C@@H]1C[C@@H](O)CN1C(=O)[C@@H](Cc1ccc(O)cc1)NC(C)=O)[C@@H](C)O)C(=O)N[C@@H](Cc1c[nH]c2ccccc12)C(N)=O

Molecular target: human OT7T175 (metastin receptor) (human) (UniProt Q969F8)
Assay: cell-based or functional assay

UniProt Q969F8, sequence (Q969F8 whole entry L364H): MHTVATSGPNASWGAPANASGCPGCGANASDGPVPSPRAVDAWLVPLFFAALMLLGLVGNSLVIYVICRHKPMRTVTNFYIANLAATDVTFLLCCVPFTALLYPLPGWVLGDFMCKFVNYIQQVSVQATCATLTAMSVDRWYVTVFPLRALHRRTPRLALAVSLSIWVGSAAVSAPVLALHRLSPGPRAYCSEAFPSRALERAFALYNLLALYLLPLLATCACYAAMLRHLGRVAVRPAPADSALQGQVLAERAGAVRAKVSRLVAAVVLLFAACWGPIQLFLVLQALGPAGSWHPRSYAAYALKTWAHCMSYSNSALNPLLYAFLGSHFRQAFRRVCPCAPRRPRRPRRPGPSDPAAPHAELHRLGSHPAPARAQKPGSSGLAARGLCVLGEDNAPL

Row | Binder | Specific Activity (EC50 of test compound based on EC50 of Metastin (45-54); intracellular calcium, FLIPR) (ratio to EC50 of Metastin (45-54))
1 | Ac-[dY]ENTFGL[Arg(Me)]W-NH2 (also: Gly7-Leu8 amide bond replaced by (E)-CH═CH-) [des(1)-Ac-[D-Tyr2,Glu3,Thr5,Gly7Ψ((E)CH═CH)Leu8,Arg(Me)9,Trp10]MS10] | 0.6
2 | Ac-[dY][Hyp]NT[Phe(4-Me)]GL[Arg(Me)]W-NH2 [des(1)-Ac-[D-Tyr2,Hyp3,Thr5,Phe(4Me)6,Arg(Me)9,Trp10]MS10] | 0.9
3 | B1 | 0.5
4 | Ac-[dY]E[Dap(CONH2)]T[Cha]GL[Arg(Me)]W-NH2 (also: Gly7-Leu8 amide bond replaced by (E)-CH═CH-) [des(1)-Ac-[D-Tyr2,Glu3,Alb4,Thr5,Cha6,Gly7Ψ((E)CH═CH)Leu8,Arg(Me)9,Trp10]MS10] | 0.5
5 | Ac-[dY][Hyp]NTFGL[Arg(Me)]W-NH2 (also: Phe5-Gly6 amide replaced by (S)CHOH-CH2) [des(1)-Ac-[D-Tyr2,Hyp3,Thr5,Phe6Ψ((S)CHOH-CH2)Gly7,Arg(Me)9,Trp10]MS10] | 1.2
6 | Ac-[dY][Hyp]NT[Cha]G[Ala(cPr)][Arg(Me)]W-NH2 [des(1)-Ac-[D-Tyr2,Hyp3,Thr5,Cha6,Ala(cPr)8,Arg(Me)9,Trp10]MS10] | 0.5
7 | Ac-[dY][Hyp]NT[Ala(cPr)]GL[Arg(Me)]W-NH2 [des(1)-Ac-[D-Tyr2,Hyp3,Thr5,Ala(cPr)6,Arg(Me)9,Trp10]MS10] | 1.9
8 | Ac-[dY]E[Dap(CONH2)]TFGL[Arg(Me)]W-NH2 (also: Gly7-Leu8 amide bond replaced by (E)-CH═CH-) [des(1)-Ac-[D-Tyr2,Glu3,Alb4,Thr5,Gly7Ψ((E)CH═CH)Leu8,Arg(Me)9,Trp10]MS10] | 0.5
9 | Ac-[dY][Hyp]NTFGL[Arg(Me)]W-NH2 (also: Gly6-Leu7 amide replaced by (E)CH=CH) [des(1)-Ac-[D-Tyr2,Hyp3,Thr5,Gly7Ψ((E)CH═CH)Leu8,Arg(Me)9,Trp10]MS10] | 0.6
10 | B2 | 0.6
11 | Ac-[dY][Hyp][Dap(CONH2)]T[Cha]GL[Arg(Me)]W-NH2 (also: Gly7-Leu8 amide bond replaced by (E)-CH═CH-) [des(1)-Ac-[D-Tyr2,Hyp3,Alb4,Thr5,Cha6,Gly7Ψ((E)CH═CH)Leu8,Arg(Me)9,Trp10]MS10] | 0.4
12 | Ac-[dY][Hyp]NTFGL[Arg(Me)]W-NH2 (also: Gly6-Leu7 amide replaced by CH2NH) [des(1)-Ac-[D-Tyr2,Hyp3,Thr5,Gly7Ψ(CH2NH)Leu8,Arg(Me)9,Trp10]MS10] | 2.9
13 | Ac-[dY][Hyp]NTFGL[Arg(Me)]W-NH2 (also: Phe5-Gly6 amide replaced by (R)CHOH-CH2) [des(1)-Ac-[D-Tyr2,Hyp3,Thr5,Phe6Ψ((R)CHOH-CH2)Gly7,Arg(Me)9,Trp10]MS10] | 0.8
14 | Ac-[dY][Hyp]NTFGL[Arg(Me)]W-NH2 (also: Phe5-Gly6 amide bond replaced by COCH2) [des(1)-Ac-[D-Tyr2,Hyp3,Thr5,Phe6Ψ(COCH2)Gly7,Arg(Me)9,Trp10]MS10] | 1.1
15 | Ac-[dY][Hyp]NTFGL[Arg(Me)]W-NH2 (also: Phe5-Gly6 amide replaced by (E)CH=CH) [des(1)-Ac-[D-Tyr2,Hyp3,Thr5,Phe6Ψ((E)CH═CH)Gly7,Arg(Me)9,Trp10]MS10] | 0.7
16 | Ac-[dY][Hyp]NT[Phe(2-Me)]GL[Arg(Me)]W-NH2 [des(1)-Ac-[D-Tyr2,Hyp3,Thr5,Phe(2Me)6,Arg(Me)9,Trp10]MS10] | 0.7
17 | Ac-[dY][Hyp][Dap(CONH2)]TFGL[Arg(Me)]W-NH2 (also: Gly7Ψ((E)CH═CH)Leu8: amide between Gly and Leu replaced by (E) alkene) [des(1)-Ac-[D-Tyr2,Hyp3,Alb4,Thr5,Gly7Ψ((E)CH═CH)Leu8,Arg(Me)9,Trp10]MS10] | 0.6
18 | Ac-[dY][Hyp]NT[Cha]GL[Arg(Me)]W-NH2 (also: Gly6-Leu7 amide replaced by (E)CH=CH) [des(1)-Ac-[D-Tyr2,Hyp3,Thr5,Cha6,Gly7Ψ((E)CH═CH)Leu8,Arg(Me)9,Trp10]MS10] | 0.6
19 | Ac-[dY][Hyp]NTFGL[Arg(Me)]W-NH2 (also: Gly6-Leu7 amide replaced by CH2CH2) [des(1)-Ac-[D-Tyr2,Hyp3,Thr5,Gly7Ψ(CH2CH2)Leu8,Arg(Me)9,Trp10]MS10] | 0.8
20 | Ac-[dY][Hyp]NT[Phe(3-Me)]GL[Arg(Me)]W-NH2 [des(1)-Ac-[D-Tyr2,Hyp3,Thr5,Phe(3Me)6,Arg(Me)9,Trp10]MS10] | 0.8
21 | Ac-[dY]ENT[Cha]GL[Arg(Me)]W-NH2 (also: Gly7-Leu8 amide bond replaced by (E)-CH═CH-) [des(1)-Ac-[D-Tyr2,Glu3,Thr5,Cha6,Gly7Ψ((E)CH═CH)Leu8,Arg(Me)9,Trp10]MS10] | 0.5
22 | Ac-[dY][Hyp]NTFGL[Arg(Me)]W-NH2 (also: Phe5-Gly6 amide replaced by (S)CHOH-(E)CH=) [des(1)-Ac-[D-Tyr2,Hyp3,Thr5,Phe6Ψ((S)CHOH-(E)CH=)Gly7,Arg(Me)9,Trp10]MS10] | 1.7
23 | B3 | 0.4
24 | Ac-[dY][Hyp]NTFAL[Arg(Me)]W-NH2 [des(1)-Ac-[D-Tyr2,Hyp3,Thr5,Ala7,Arg(Me)9,Trp10]MS10] | 0.5
25 | Ac-[dY][Hyp]NTFGL[Arg(Me)]W-NH2 (also: Phe5-Gly6 amide replaced by (R)CHOH-(E)CH=) [des(1)-Ac-[D-Tyr2,Hyp3,Thr5,Phe6Ψ((R)CHOH-(E)CH=)Gly7,Arg(Me)9,Trp10]MS10] | 1.4
26 | Ac-[dY][Hyp]NTFGL[Arg(Me)]W-NH2 [des(1)-Ac-[D-Tyr2,Hyp3,Thr5,Arg(Me)9,Trp10]MS10] | 1.2
27 | B4 | 0.6
28 | B5 | 3.8
29 | B6 | 0.5
